Experimental data taken from patent WO2021221136A1 (dated 2021).

Target: T1, SARS-CoV-2 S1 subunit-Fc (Fc-tagged S1 protein, The Native Antigen Company) (SARS-CoV-2, UniProt P0DTC2 14-674)
T1 construct: domain: S1 subunit
Experiment: BLI (BLItz), His-tagged CoVHH1 on Ni-NTA sensor, S1-Fc 0-693.1 nM in solution, global fitting

B1: His-tagged CoVHH1 (VHH)
VHH: AEVQLVESGGGQVETGGSLRLSCQASGSTFSDYVMAWFRQRPGKEREFVATISRNGGTTTYGSSVKGRFTISRDNAKSTVYLQMNSLKPEDTAVYYCYAVGGDGDSWGQGTQVTVSSEPKTPKPQSHHHHHH
notes: also called CoVHH1-His; His-tagged VHH
- Kd: 7.13 nM
- koff: 0.000114 s⁻¹
- kon: 16000 M⁻¹ s⁻¹
